Source: publication PMC10094722, “How Single Amino Acid Substitutions Can Disrupt a Protein Hetero-Dimer Interface: Computational and Experimental Studies of the LigAB Dioxygenase from Sphingobium sp. Strain SYK-6” (International Journal of Molecular Sciences, 2023)
Where a chain is given by its changes, count along the chain named. Names and notes keep the numbering of the source. Values joined by “and” are separate entries in the source; they are usually repeats but may differ in a detail not shown here. Identical values can stand only once.

Experiments:
LigA F103V = target: T1, LigA F103V (Sphingobium sp. strain SYK-6, UniProt P22635 1-139, F103V); experiment: pull-down; co-purification of untagged LigB with His6-LigA on HisPur Ni-NTA resin from lysate of co-expressing E. coli, aerobic; 50 mM HEPES, 300 mM NaCl, pH 8.0, imidazole step gradient (62.5, 125, 250 mM); fractions on SDS-PAGE, Coomassie, quantified with ImageQuant; details: partners not purified
T1 construct: Protocatechuate 4,5-dioxygenase alpha chain (LigA), Sphingobium sp. strain SYK-6, with F103V; Site-directed mutagenesis as described by Barry et al; source: E. coli BL21, pET15b, co-expressed with LigB; in lysate; not shown: His6, N-terminal, kept
T1 sequence: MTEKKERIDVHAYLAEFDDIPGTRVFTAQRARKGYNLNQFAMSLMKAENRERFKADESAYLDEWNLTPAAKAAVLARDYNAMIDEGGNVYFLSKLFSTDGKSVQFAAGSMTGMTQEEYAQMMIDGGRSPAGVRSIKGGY

[1] = target: T2, LigA, alpha subunit of protocatechuate 4,5-dioxygenase (LigAB), wild-type (Sphingobium sp. strain SYK-6, UniProt P22635 1-139); experiment: as above; details: partners not purified
T2 construct: Protocatechuate 4,5-dioxygenase alpha chain (LigA), Sphingobium sp. strain SYK-6; 17.711 kDa with the His6-tag; also called α subunit; source: E. coli BL21, pET15b, co-expressed with LigB; in lysate and purified (Ni-NTA); not shown: His6, N-terminal, kept
T2 sequence: T1 sequence with V103F

LigA F103L = target: T3, LigA F103L (Sphingobium sp. strain SYK-6, UniProt P22635 1-139, F103L); experiment: as above; details: partners not purified
T3 construct: Protocatechuate 4,5-dioxygenase alpha chain (LigA), Sphingobium sp. strain SYK-6, with F103L; Site-directed mutagenesis as described by Barry et al; source: E. coli BL21, pET15b, co-expressed with LigB; in lysate; not shown: His6, N-terminal, kept
T3 sequence: T1 sequence with V103L

LigA F103H = target: T4, LigA F103H (Sphingobium sp. strain SYK-6, UniProt P22635 1-139, F103H); experiment: as above; details: partners not purified
T4 construct: Protocatechuate 4,5-dioxygenase alpha chain (LigA), Sphingobium sp. strain SYK-6, with F103H; Site-directed mutagenesis as described by Barry et al; source: E. coli BL21, pET15b, co-expressed with LigB; in lysate; not shown: His6, N-terminal, kept
T4 sequence: T1 sequence with V103H

LigA F103A = target: T5, LigA F103A (Sphingobium sp. strain SYK-6, UniProt P22635 1-139, F103A); experiment: as above; details: partners not purified
T5 construct: Protocatechuate 4,5-dioxygenase alpha chain (LigA), Sphingobium sp. strain SYK-6, with F103A; Site-directed mutagenesis as described by Barry et al; also called F103α to alanine; source: E. coli BL21, pET15b, co-expressed with LigB; in lysate and purified (Ni-NTA); not shown: His6, N-terminal, kept
T5 sequence: T1 sequence with V103A

LigA F103T = target: T6, LigA F103T (Sphingobium sp. strain SYK-6, UniProt P22635 1-139, F103T); experiment: as above; details: partners not purified
T6 construct: Protocatechuate 4,5-dioxygenase alpha chain (LigA), Sphingobium sp. strain SYK-6, with F103T; Site-directed mutagenesis as described by Barry et al; source: E. coli BL21, pET15b, co-expressed with LigB; in lysate; not shown: His6, N-terminal, kept
T6 sequence: T1 sequence with V103T

LigA F103S = target: T7, LigA F103S (Sphingobium sp. strain SYK-6, UniProt P22635 1-139, F103S); experiment: as above; details: partners not purified
T7 construct: Protocatechuate 4,5-dioxygenase alpha chain (LigA), Sphingobium sp. strain SYK-6, with F103S; Site-directed mutagenesis as described by Barry et al; source: E. coli BL21, pET15b, co-expressed with LigB; in lysate and purified (Ni-NTA); not shown: His6, N-terminal, kept
T7 sequence: T1 sequence with V103S

[2] = target: the molecule itself; experiment: native gel or EMSA; 10% native polyacrylamide gel of purified LigAB (wild-type, F103A, F103S), Coomassie stained, 6.25 to 50 ug protein per lane; masses calculated from the bands

B1: LigB, beta subunit of protocatechuate 4,5-dioxygenase (LigAB) (natural protein, Sphingobium sp. strain SYK-6)
chain: MARVTTGITSSHIPALGAAIQTGTSDNDYWGPVFKGYQPIRDWIKQPGNMPDVVILVYNDHASAFDMNIIPTFAIGCAETFKPADEGWGPRPVPDVKGHPDLAWHIAQSLILDEFDMTIMNQMDVDHGCTVPLSMIFGEPEEWPCKVIPFPVNVVTYPPPSGKRCFALGDSIRAAVESFPEDLNVHVWGTGGMSHQLQGPRAGLINKEFDLNFIDKLISDPEELSKMPHIQYLRESGSEGVELVMWLIMRGALPEKVRDLYTFYHIPASNTALGAMILQPEETAGTPLEPRKVMSGHSLAQA
notes: Protocatechuate 4,5-dioxygenase beta chain (LigB), Sphingobium sp. strain SYK-6; 33.292 kDa; untagged; also called β subunit; source: E. coli BL21, pET15b, co-expressed with His6-LigA (wild-type or mutant); in lysate and co-purified (Ni-NTA)
LigA F103V
  α:β ratio of abundances in elution fractions E3-1 to E3-5: 0.79
  β:α ratio of abundances in elution fractions E3-1 to E3-5: 1.27
[1]
  α:β ratio of abundances in elution fractions E3-1 to E3-5: 1.08
  β:α ratio of abundances in elution fractions E3-1 to E3-5: 0.928
LigA F103L
  α:β ratio of abundances in elution fractions E3-1 to E3-5: 0.879
  β:α ratio of abundances in elution fractions E3-1 to E3-5: 1.14
LigA F103H
  α:β ratio of abundances in elution fractions E3-1 to E3-5: 2.19
  β:α ratio of abundances in elution fractions E3-1 to E3-5: 0.456
LigA F103A
  α:β ratio of abundances in elution fractions E3-1 to E3-5: 0.817
  β:α ratio of abundances in elution fractions E3-1 to E3-5: 1.22
LigA F103T
  α:β ratio of abundances in elution fractions E3-1 to E3-5: 1.64
  β:α ratio of abundances in elution fractions E3-1 to E3-5: 0.608
LigA F103S
  α:β ratio of abundances in elution fractions E3-1 to E3-5: 1.04
  β:α ratio of abundances in elution fractions E3-1 to E3-5: 0.959

B2: LigAB α/β heterodimer with LigA F103S (complex, Sphingobium sp. strain SYK-6)
chain 1: T1 sequence with V103S
chain 2: B1 chain
notes: Protocatechuate 4,5-dioxygenase alpha chain (LigA), Sphingobium sp. strain SYK-6, with F103S; as m6; Protocatechuate 4,5-dioxygenase beta chain (LigB), Sphingobium sp. strain SYK-6; as m2; The heterodimer as the unit that associates with itself in the native gel; also called F103S variant; source: E. coli BL21, pET15b, co-expressed, purified (Ni-NTA); not shown: His6, N-terminal, kept
[2]
  stoichiometry N: 3 and 6

B3: LigAB α/β heterodimer, wild-type (protocatechuate 4,5-dioxygenase) (complex, Sphingobium sp. strain SYK-6)
chain 1: T1 sequence with V103F
chain 2: B1 chain
notes: Protocatechuate 4,5-dioxygenase alpha chain (LigA), Sphingobium sp. strain SYK-6; as m1; Protocatechuate 4,5-dioxygenase beta chain (LigB), Sphingobium sp. strain SYK-6; as m2; The heterodimer as the unit that associates with itself in the native gel; also called wild-type LigAB; WT-LigAB; source: E. coli BL21, pET15b, co-expressed, purified (Ni-NTA); not shown: His6, N-terminal, kept
[2]
  stoichiometry N: 3

B4: LigAB α/β heterodimer with LigA F103A (complex, Sphingobium sp. strain SYK-6)
chain 1: T1 sequence with V103A
chain 2: B1 chain
notes: Protocatechuate 4,5-dioxygenase alpha chain (LigA), Sphingobium sp. strain SYK-6, with F103A; as m3; Protocatechuate 4,5-dioxygenase beta chain (LigB), Sphingobium sp. strain SYK-6; as m2; The heterodimer as the unit that associates with itself in the native gel; also called F103A mutant enzyme; source: E. coli BL21, pET15b, co-expressed, purified (Ni-NTA); not shown: His6, N-terminal, kept
[2]
  binding result: binds
